This note sets out measurements from paper PMC12567329, “Chloroplast Hibernation-Promoting Factor PSRP1 Prevents Ribosome Degradation Under Darkness Independently of 100S Dimer Formation” (Plants, 2025).

What all share (test): SEC-MALS; Superdex 200 5/150 GL; 100 mM Tris-HCl pH 8.0, 150 mM NaCl, 1 mM EDTA, 10% (v/v) glycerol; 0.15 mL/min; 90 µL of each sample at 1.6 mg/mL injected
A general note: Size exclusion chromatography separates by hydrodynamic size, large species first.

Data set [1] has as its target Plastid-specific ribosomal protein 1b (PSRP1b) of Physcomitrium patens, mature form (Physcomitrium patens).
Data set [2] has as its target Plastid-specific ribosomal protein 1a (PSRP1a) of Physcomitrium patens, mature form (Physcomitrium patens).
Data set [3] concerns the molecule itself.

What is called stoichiometry N is the number of molecules, sites or subunits per partner or assembly. In data set [1], “Plastid-specific ribosomal protein 1b (PSRP1b) of Physcomitrium patens, mature form (natural protein)” registered a stoichiometry N of 2. “Plastid-specific ribosomal protein 1a (PSRP1a) of Physcomitrium patens, mature form (natural protein)” showed a stoichiometry N in data set [2] of 2.

B1: Bacillus subtilis long-form hibernation-promoting factor (BsHPF) (natural protein, UniProt P28368 1-189, looked up)
chain: MNYNIRGENIEVTPALKDHVERKIGKLERYFDHSVDADVNVNLKFYNDKESKVEVTIPMTDLALRSEVHNEDMYNAIDLATNKLERQIRKHKTKVNRKFREQGSPKYLLANGLGSDTDIAVQDDIEEEESLDIVRQKRFNLKPMDSEEAILQMNMLGHNFFVFTNAETNLTNVVYRRNDGKYGLIEPTE
notes: Long-form hibernation-promoting factor (LHPF) of Bacillus subtilis, amplified from genomic DNA; predicted mass of the construct 24.2 kDa; Dimeric control protein of the SEC-MALS experiment; also called Bacillus subtilis LHPF
Take B1: the “stoichiometry N” value in data set [3] was determined as 2.
